Experimental findings from article PMC11187062 (2024) are described below.

Where a chain is given by its changes, count along the chain named. In names and notes the source's numbering stands.

In general, Kd refers to the equilibrium constant for the complex coming apart. A low value points to higher affinity.

This assay concerns the target T1, human UHRF1 PHD finger, residues 299–366 (human, UniProt Q96T88 299-366).
T1 chain: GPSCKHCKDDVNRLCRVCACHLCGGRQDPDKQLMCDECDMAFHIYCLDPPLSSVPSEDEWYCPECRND
The assay is described as follows: ITC. In general terms: Isothermal titration calorimetry measures the heat released or taken up as one component is titrated into another.

B1: hDPPA3_(81-118) L88A (domain or fragment)
chain: SRRGVRTALSVQREKMARLRYMLLGGVRTHERRPTNKE
The molecule B1 showed a Kd of 1.28 µM.

B2: hDPPA3_(81-118) V85A (domain or fragment)
chain: B1 chain with V5A, A8L
Turning to B2, the dissociation constant Kd is 1.61 µM.
